# Data from patent US20050214312A1.
# Target: recombinant human or murine heat shock protein 70 (hsp70) (human or murine)
binder,measurement,value
RGYVYQGL (modifications not checked) [RGYVYQGL (VSV nucleoprotein amino acids 52-59)],Kd,82 µM
